Test results reported in US20220372084A1 (MJCELL BIO, published 2022).

Molecular target: PA63 ligand (truncated 63 kDa portion of anthrax protective antigen), reagent conjugated with FITC (Bacillus anthracis, UniProt P13423 197-764)
Experiment: flow cytometry, FITC-conjugated PA63 on cell lines expressing ANTXR1 and ANTXR2

B1: ANTXR1 (anthrax toxin receptor 1) (receptor)
chain: not shown
notes: whole, on cells
Does B1 bind?
Result: binds
